{
  "source": "paper PMC4834876",
  "molecular_target": "Taxol-stabilised microtubules of porcine brain tubulin (porcine) (UniProt P02550)",
  "experiment": "co-sedimentation",
  "data": [
    {"substance": "EB1 full-length (end-binding protein 1), wild type (from UniProt Q15691 1-268) (natural protein)", "values": [
      {"measurement": "percent bound", "value": 50, "unit": "%"}
    ]}
  ]
}
